Data: patent US20250388676A1

How the values were obtained:
[1] = molecular target: cynomolgus GITR (cynomolgus monkey); assay: flow cytometry on NFkB-NlucP/HEK293 cells expressing cyno GITR, detection with anti-human IgG Fc F(ab')2 [panel B]
[2] = molecular target: human OX40 on Jurkat NF-kB-Luc2 OX40 reporter cells (human) (UniProt P43489); assay: cell-based or functional assay
[3] = molecular target: OX40 (analyte in solution) (UniProt P43489); assay: SPR (Biacore), construct captured on CM5 chip via anti-human Fc or Fab, antigen as analyte, 25 C
Sequence of OX40 (analyte in solution) (P43489 29-214 limits assumed): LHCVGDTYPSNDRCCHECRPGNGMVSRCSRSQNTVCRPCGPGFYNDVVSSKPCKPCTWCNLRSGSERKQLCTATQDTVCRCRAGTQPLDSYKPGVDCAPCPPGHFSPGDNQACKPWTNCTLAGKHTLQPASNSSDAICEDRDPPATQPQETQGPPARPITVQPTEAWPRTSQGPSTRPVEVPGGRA

[4] = molecular target: human HVEM on Jurkat NF-kB reporter cells (human) (UniProt Q92956); assay: cell-based or functional assay
Sequence of human HVEM on Jurkat NF-kB reporter cells (human) (Q92956 39-283): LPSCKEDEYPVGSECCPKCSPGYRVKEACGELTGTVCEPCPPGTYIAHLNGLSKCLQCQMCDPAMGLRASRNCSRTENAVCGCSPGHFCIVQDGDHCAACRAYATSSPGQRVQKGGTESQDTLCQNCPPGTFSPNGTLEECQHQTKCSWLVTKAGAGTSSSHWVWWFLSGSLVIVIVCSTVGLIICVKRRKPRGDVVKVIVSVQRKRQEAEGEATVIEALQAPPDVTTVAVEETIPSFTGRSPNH

[5] = molecular target: human LTBR on Jurkat NF-kB reporter cells (human) (UniProt P36941); assay: cell-based or functional assay
Sequence of human LTBR on Jurkat NF-kB reporter cells (human) (P36941 31-435): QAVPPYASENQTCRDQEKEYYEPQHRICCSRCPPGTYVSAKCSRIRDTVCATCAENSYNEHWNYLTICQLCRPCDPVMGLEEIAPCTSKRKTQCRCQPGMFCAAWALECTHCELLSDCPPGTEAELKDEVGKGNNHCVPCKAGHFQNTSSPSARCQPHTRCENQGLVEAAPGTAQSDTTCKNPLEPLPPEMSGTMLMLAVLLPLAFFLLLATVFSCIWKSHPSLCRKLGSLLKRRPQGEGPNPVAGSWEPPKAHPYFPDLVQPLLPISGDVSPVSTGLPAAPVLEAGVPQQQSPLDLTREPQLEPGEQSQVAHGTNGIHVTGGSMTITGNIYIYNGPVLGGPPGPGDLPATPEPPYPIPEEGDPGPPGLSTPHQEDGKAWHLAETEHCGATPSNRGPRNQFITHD

[6] = molecular target: HVEM (analyte in solution) (UniProt Q92956); assay: SPR (Biacore), construct captured on CM5 chip via anti-human Fc or Fab, antigen as analyte, 25 C
Sequence of HVEM (analyte in solution) (Q92956 39-202 limits assumed): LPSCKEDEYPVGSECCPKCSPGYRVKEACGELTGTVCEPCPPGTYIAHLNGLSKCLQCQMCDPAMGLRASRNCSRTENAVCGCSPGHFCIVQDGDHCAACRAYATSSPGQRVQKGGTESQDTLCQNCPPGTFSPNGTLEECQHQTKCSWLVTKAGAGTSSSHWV

[7] = molecular target: activated cyno T cells; assay: flow cytometry on activated primary cynomolgus T cells, detection with anti-human IgG Fc F(ab')2 [panel B]
[8] = molecular target: activated human T cells; assay: flow cytometry on activated primary human T cells, detection with anti-human IgG Fc F(ab')2 [panel A]
[9] = molecular target: human CD27 on reporter cells (human) (UniProt P26842); assay: cell-based or functional assay
Sequence of human CD27 on reporter cells (human) (P26842 20-260): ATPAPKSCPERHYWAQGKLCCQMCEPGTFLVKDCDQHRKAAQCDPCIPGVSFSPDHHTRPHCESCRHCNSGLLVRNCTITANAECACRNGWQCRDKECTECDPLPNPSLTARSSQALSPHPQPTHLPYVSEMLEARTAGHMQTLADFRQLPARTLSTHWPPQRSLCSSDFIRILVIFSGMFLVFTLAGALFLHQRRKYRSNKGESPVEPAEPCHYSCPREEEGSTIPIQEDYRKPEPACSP

[10] = molecular target: CD27 (analyte in solution) (UniProt P26842); assay: SPR (Biacore), construct captured on CM5 chip via anti-human Fc or Fab, antigen as analyte, 25 C
Sequence of CD27 (analyte in solution) (P26842 20-191 limits assumed): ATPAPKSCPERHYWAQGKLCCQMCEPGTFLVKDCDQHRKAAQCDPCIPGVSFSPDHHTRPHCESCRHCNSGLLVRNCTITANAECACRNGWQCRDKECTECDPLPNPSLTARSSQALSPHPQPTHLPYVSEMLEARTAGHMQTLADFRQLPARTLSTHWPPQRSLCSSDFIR

Sequence of human OX40 on Jurkat NF-kB-Luc2 OX40 reporter cells (human) (P43489 29-277): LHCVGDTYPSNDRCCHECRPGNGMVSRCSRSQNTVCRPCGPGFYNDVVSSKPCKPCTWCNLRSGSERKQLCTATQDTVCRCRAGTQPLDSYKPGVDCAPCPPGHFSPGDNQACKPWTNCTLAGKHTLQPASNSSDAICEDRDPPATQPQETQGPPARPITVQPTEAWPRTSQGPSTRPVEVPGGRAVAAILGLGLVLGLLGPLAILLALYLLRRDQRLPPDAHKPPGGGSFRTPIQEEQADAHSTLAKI

B1: GITRL/irrelevant control (antibody, part only; not given: irrelevant anti-TNP binding site, not shown: another chain or arm of the molecule; small tags and cut ends)
chain: QLETAKEPCMAKFGPLPSKWQMASSEPPCVNKVSDWKLEILQNGLYLIYGQVAPNANYNDVAPFEVRLYKNKDMIQTLTNKSKIQNVGGTYELHVGDTIDLIFNSEHQVLKNNTYWGIILLANPQFISGGGGSGGGGSQLETAKEPCMAKFGPLPSKWQMASSEPPCVNKVSDWKLEILQNGLYLIYGQVAPNANYNDVAPFEVRLYKNKDMIQTLTNKSKIQNVGGTYELHVGDTIDLIFNSEHQVLKNNTYWGIILLANPQFISGGGGSGGGGSQLETAKEPCMAKFGPLPSKWQMASSEPPCVNKVSDWKLEILQNGLYLIYGQVAPNANYNDVAPFEVRLYKNKDMIQTLTNKSKIQNVGGTYELHVGDTIDLIFNSEHQVLKNNTYWGIILLANPQFIS
EC50 (read off the curve) [1]: 0.02 nM

B2: OX40L monospecific (protein, part only; not given: carrier Fab or Fc and linkers, not shown: another chain or arm of the molecule; a dimerising Fc or GST; large carriers; small tags and cut ends)
chain: QVSHRYPRIQSIKVQFTEYKKEKGFILTSQKEDEIMKVQDNSVIINCDGFYLISLKGYFSQEVDISLHYQKDEEPLFQLKKVRSVNSLMVASLTYKDKVYLNVTTDNTSLDDFHVNGGELILIHQNPGEFCVLGGGGSGGGGSQVSHRYPRIQSIKVQFTEYKKEKGFILTSQKEDEIMKVQDNSVIINCDGFYLISLKGYFSQEVDISLHYQKDEEPLFQLKKVRSVNSLMVASLTYKDKVYLNVTTDNTSLDDFHVNGGELILIHQNPGEFCVLGGGGSGGGGSQVSHRYPRIQSIKVQFTEYKKEKGFILTSQKEDEIMKVQDNSVIINCDGFYLISLKGYFSQEVDISLHYQKDEEPLFQLKKVRSVNSLMVASLTYKDKVYLNVTTDNTSLDDFHVNGGELILIHQNPGEFCVL
OX40 reporter EC50 [2]: 0.74 nM | Average binding Relative (RU) [3]: 23.7 RU

B3: LIGHT monospecific (protein, part only; not given: carrier Fab or Fc and linkers, not shown: another chain or arm of the molecule; a dimerising Fc or GST; large carriers; small tags and cut ends)
chain: LIQERRSHEVNPAAHLTGANSSLTGSGGPLLWETQLGLAFLRGLSYHDGALVVTKAGYYYIYSKVQLGGVGCPLGLASTITHGLYKRTPRYPEELELLVSQQSPCGRATSSSRVWWDSSFLGGVVHLEAGEKVVVRVLDERLVRLRDGTRSYFGAFMVGGGGSGGGGSLIQERRSHEVNPAAHLTGANSSLTGSGGPLLWETQLGLAFLRGLSYHDGALVVTKAGYYYIYSKVQLGGVGCPLGLASTITHGLYKRTPRYPEELELLVSQQSPCGRATSSSRVWWDSSFLGGVVHLEAGEKVVVRVLDERLVRLRDGTRSYFGAFMVGGGGSGGGGSLIQERRSHEVNPAAHLTGANSSLTGSGGPLLWETQLGLAFLRGLSYHDGALVVTKAGYYYIYSKVQLGGVGCPLGLASTITHGLYKRTPRYPEELELLVSQQSPCGRATSSSRVWWDSSFLGGVVHLEAGEKVVVRVLDERLVRLRDGTRSYFGAFMV
HVEM reporter EC50 [4]: 0.05 nM | LTBR reporter EC50 [5]: 0.0057 nM | Average binding Relative (RU) [6]: 1.69 RU

B4: GITRLmut/anti-PD-1 mAb1 (antibody, part only; not given: mutant GITRL, constant regions, linkers, not shown: a dimerising Fc or GST)
heavy, part: QLQLQESGPGLVKPSETLSLTCTVSGGSISTSSYFWGWIRQPPGKGLEWIGSIYRSGSTYYNPSLKSRVTISVDTSKNQFSLKLSSVTAADTAVYYCARGITGDPGDYWGQGTLVTVSS
light, part: EIVLTQSPATLSLSPGERATLSCGASQSVSINFLAWYQQKPGLAPRLLIYEASSRATGIPDRFSGSGSGTDFTLTISRLEPEDFAVYYCQQYGSSPYTFGQGTKLEIK
EC50 (read off the curve) [7]: 0.6 nM | EC50 (read off the curve) [8]: 0.4 nM

B5: GITRLmut/anti-PD-1 mAb2 (antibody, part only; not given: mutant GITRL, constant regions, linkers, not shown: a dimerising Fc or GST)
heavy, part: QLQLQESGPGLVKPSETLSLTCTVSGGSISSSSYFWGWIRQPPGKGLEWIGSIYRSGSTYYNPSLKSRVTISVDTSKNQFSLKLSSVTAADTAVYYCARGITGDPGDYWGQGTLVTVSS
light, part: EIVLTQSPATLSLSPGERATLSCGASQSVPINFLAWYQQKPGLAPRLLIYEASSRHTGIPDRFSGSGSGTDFTLTISRLEPEDFAVYYCGQYGSSPYTFGQGTKLEIK
EC50 (read off the curve) [7]: 0.2 nM | EC50 (read off the curve) [8]: 0.1 nM

B6: CD70 monospecific (protein, part only; not given: carrier Fab or Fc and linkers, not shown: another chain or arm of the molecule; a dimerising Fc or GST; large carriers; small tags and cut ends)
chain: GWDVAELQLNHTGPQQDPRLYWQGGPALGRSFLHGPELDKGQLRIHRDGIYMVHIQVTLAICSSTTASRHHPTTLAVGICSPASRSISLLRLSFHQGCTIASQRLTPLARGDTLCTNLTGTLLPSRNTDETFFGVQWVRPGGGGSGGGGSGWDVAELQLNHTGPQQDPRLYWQGGPALGRSFLHGPELDKGQLRIHRDGIYMVHIQVTLAICSSTTASRHHPTTLAVGICSPASRSISLLRLSFHQGCTIASQRLTPLARGDTLCTNLTGTLLPSRNTDETFFGVQWVRPGGGGSGGGGSGWDVAELQLNHTGPQQDPRLYWQGGPALGRSFLHGPELDKGQLRIHRDGIYMVHIQVTLAICSSTTASRHHPTTLAVGICSPASRSISLLRLSFHQGCTIASQRLTPLARGDTLCTNLTGTLLPSRNTDETFFGVQWVRP
CD27 reporter EC50 [9]: 1.9 nM | Average binding Relative (RU) [10]: 32.7 RU
